# Tested on: MS2 coat protein
# Assay: apparent KD of MS2 coat protein; higher = weaker reporter binding
# Settings: Eterna round: R107
# Method in brief: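 Normalised binding curves from single clusters were fitted, and the median fit for each design is given as apparent KD. The clusters held designed RNA switches transcribed on-chip from Illumina sequencing clusters. These were titrated with SNAP-549-labelled MS2 coat protein (twofold steps from 0.7 or 1.5 nM to 3 µM, 0.8–1.5 h to 10–20 min per step) in 100 mM Tris-HCl pH 7.5, 80 mM KCl, 4 mM MgCl2, without or with constant ligand.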
# [1] = input ligand: theophylline 20 uM
# [2] = input ligand: theophylline 2 mM
# [3] = input ligand: tryptophan 2.4 mM
Sequence,apparent KD of MS2 coat protein (input ligand: arginine 13.2 mM),apparent KD of MS2 coat protein (input ligand: none),apparent KD of MS2 coat protein [1],apparent KD of MS2 coat protein [2],apparent KD of MS2 coat protein [3]
AGGACGGUCGGAAGGAGCGGUACAUGAGGAUCACCCAUGUACUCCUGGGCAUCCGUAGUGUGCCAGGUAGGUCGCCGAUUGCGGG [XArg-B8],12.1 nM,12.1 nM,19.8 nM,21.5 nM,16.2 nM
ACAUUGCGCUCGGCCGCCACUGGCUAUAGAUUUAUAGCAUUAAUGAACAUGAGGAUCACCCAUGUCAGGACCGGGAGCGAACCAU [SSTryp B #8],12.1 nM,–,17.2 nM,13.2 nM,–
UGACGAUACCUGGAUACCAGCGACAUGAGGAUCACCCAUGUAUGAGGAUCAGCCAUGAUAUGCCCUUGGCAGCCACGAAAGUCUU [VUVMULLIN],16.8 nM,15.8 nM,27.5 nM,150 nM,18.6 nM
AAUACCGGAUCGGCCGCCACUGGUUGGCCCUGUGUACAUGAGGAUCACCCAUGUCCAUCCCAAACCAGGACCGGGAUCUUUGUGC [Ededmate],11.7 nM,–,15.8 nM,13.7 nM,–
GGGCGCGUGGACUGGCGUGCUCCGCUCCGUCGAGGACCGGUACGGCCGCCACUCGACAUGAGGAUCACCCAUGUGUGCGCUCGCG [#1 Exclusion - Tryptophan A Attempt #18 (HarryS)],14.5 nM,21 nM,194 nM,40.4 nM,7.36 nM
UCAGUGCAAGGAAGGAGCGGGUACAUGAGGAUCACCCAUGUGCAAGUGGUGAGUGUUCGUGCCCAGGUAGGUCGCCUAGCCUGGU [XArg-B19],36.4 nM,192 nM,122 nM,348 nM,54.5 nM
UCGGGCAGAGCGGCCGCCACUGUUUGGCAUGCGGAUGAAGGAACAUGAGGAUCACCCAUGUAGAUUAGGACCGGGCUGGCGGAGA [jjhemullin],17.3 nM,20.1 nM,19.2 nM,39.4 nM,36.5 nM
UGGGCAUACAUGAGGAUCACCCAUGUAGAUACCAGCACUAGCCUGUGCCCUUGGCAGCUAACCGGGUCGAGAACUUAGUGCUCCU [Lexele],10.9 nM,–,21.9 nM,–,11.5 nM
GGGCGCGAGACGGCCGCCACUACACAUGAGGAUCACCCAUGUAUGGCAACAUGAGGAUCUGCCAUUAGGACCGGGUCAGGGCCCA,29.3 nM,31.2 nM,53.4 nM,41.8 nM,38.5 nM
AACAUGAGGAUCACCCAUGUAAAAUGGGAUACCAGAGACGAAAGUCUCCCUUGGCAGCCCACUGCCUCCUUUACGAAAGUAGAGG [Theophylline A 15],29.8 nM,–,32.5 nM,–,38.3 nM
AUCGUACCUGAUGAUACCAGCAUGUGAUCGUAACAUGAGGAUCACCCAUGUAAUCAGUGAUGCCCUUGGCAGCAUGAUCGGUACA [Same State - Theophylline B (Freestyle 14)],79.2 nM,–,127 nM,–,94.9 nM
CGGCUCAUAAUGGAUACCAGUCCAGCAUAGAAACCUUGACACAUGAGGAUCACCCAUGUUGACCCUUGGCAGCCAUUGAUCAUAC [theeternabot_exclusion_MS2_Theo_B_28],23.1 nM,–,36.5 nM,–,21.7 nM
ACAUGAGGAUCACCCAUGUAAUGGCACGAUACCAGCUGAUCCCGUGGCCCUUGGCAGCGUCCGGUGUGGUCCGGCGGGUUGGACG [LLLMULLIN],14.5 nM,14.5 nM,22.6 nM,34.5 nM,17.4 nM
UCUCAAGGCCGCUCGGUGCUCCCUGGUGAUACCAGCCAUAUAUCCGGCCCUUGGCAGCACAUGAGGAUCACCCAUGUAGCAGGCG [Sorimaat],18 nM,24 nM,41.6 nM,8.54 nM,28.1 nM
AUAACAUGAGGAUCACCCAUGUUGAGUGAUACCAGACUAUGUAAUGUCCCUUGGCAGCACAAGUAAAGUUAUAAAUAAUGAUAGA [#12 SameState-TheophyllineA],48.2 nM,–,55.1 nM,–,47.2 nM
CGGUUUGUGAUGGAUACCAGCAGUGUGGCUGUUUAUCCUGACAUGAGGAUCACCCAUGUGUGCCCUUGGCAGCUGUUGUGGGCUG [8.aC],64.1 nM,–,105 nM,–,77 nM
